# Test results taken from patent publication US12624096B2, “Anti-tau antibodies and methods of use thereof” (GTInvent Limited, priority 2020, dated 2026).
# “Also recorded” adds a separate entry of the source.
# B1: CC7: anti-tau clone, SEQ ID NO: 365 (protein)
# scFv: QVQLQESGPSLVKPSQTLSLTCTVSGFSLTSNAVIWVRQAPGKAPEWVALIDVDGDAAYDPALKSRLSITRDTSKSQVSLSLRSVTTEDTAVYYCARDYGSWGYVSDIDYWGPGLLVTVSSEGKSSGASGESKVDDRVVRTQPSSVSGSLGQRVSITCSGSYITGSSVGWFQQVPGSGLKTVIYDNNDRPSGVPDRFSGSKSGDTATLTISSLQAEDEADYYCASYDTSNIGLFGSGTRLTVLG
# modifications: CC7 amino acid sequence
# B2: CE2: anti-tau clone referred to as CE2 or E1B8, SEQ ID NO: 366 (protein)
# scFv: QVQLQESGPSLVKPSQTLSLTCTVSGFSLTNYPVGWVRQAPGKALEWIGNIENDGSANYASALKSRLSITRDTSKNQVSLSLSSATTEDTAVYYCGREFGGSDGYTYFVDIDYWGPGLLVTVSSEGKSSGASGESKVDDQAVLTQPSSVSKSLGQSVSITCSGSSSNVGYGNYVSWFQQVPGSAPKILIYGATSRASGVPDRFSGSRSGNTATLTITSLQAEDEADYYCASYDGSSSGVFGSGTRLTVLG
# modifications: CE2/E1B8 amino acid sequence
# B3: NS2A1: anti-tau clone, SEQ ID NO: 220 (protein)
# scFv: QVQLQESGPSLVKPSQTLSLTCTVSGFSLSTNSVGWVRQAPGKAPEWVAGIDTDGEEGFNPVLKSRLSITRDTSKSQVSLSLSNVTSEDTAVYYCGRSYRTDGLAYGYVQAIDYWGPGLLVTISSEGKSSGASGESKVDDQSVLTQPSSVSGSPGQTVSITCSGSYIGSSGVGWFQQLPGSGLRTIIVASDGRPSGVPDGFSMSKSGNTATLTISSLQAEDEADYFCGSSDRTQYTGLFGSGTRLTVLG
# modifications: NS2A1 amino acid sequence
# B4: E2B7: anti-tau clone, SEQ ID NO: 254 (protein)
# scFv: QVQLQESGPSLVKPSQTLSLTCTVSGFSLTSWGVAWVRQAPGKALEWLGTMRSGGGTEYNPALKSRLSITRDTSKSQVSLSLSSVTTEDMAMYYCARGYLSGIHYAWGRGLLVSVSSEGKSSGASGESKVDDQAVLTQLSSVSGSLGQRVSITCSGSSSNVGDGDYVGWFQQLPGSAPKLLIYSARNRASGVPDRFSGSRSGNTATLTITSLQAEDEADYYCASIDTSRSHIFGSGTRLTVLG
# modifications: E2B7 amino acid sequence
# Legend:
# human tau and mouse tau = experiment: Western blot of WT, L66+/+ and L1+/+ mouse brain homogenates; format: binding; settings: 20 μg protein, 5-month-old mice
# Protocol: Protein equivalent to 20 μg from each brain extract was separated using 4-20% bis-tris gels and run in 1×MES buffer.
# A band is detected in each sample (WT, L66^+/+ and L1^+/+) with an apparent molecular weight of approximately 55 kDa. This band most likely corresponds to endogenous mouse tau which is of a similar size. In the L66^+/+ samples, a second band running at approximately 68 kDa is also detected. The presence of numerous other bands indicates proteolytic truncation of tau within brain homogenates.
# hT40 = hT40 (Homo sapiens, UniProt P10636); experiment: Biacore X100 SPR, scAb captured via anti-HuCk, hT40 as analyte; format: binding; settings: scAb, Table 23, T441 (hT40)
# Chain of hT40 (P10636 1-441 isoform P10636-8): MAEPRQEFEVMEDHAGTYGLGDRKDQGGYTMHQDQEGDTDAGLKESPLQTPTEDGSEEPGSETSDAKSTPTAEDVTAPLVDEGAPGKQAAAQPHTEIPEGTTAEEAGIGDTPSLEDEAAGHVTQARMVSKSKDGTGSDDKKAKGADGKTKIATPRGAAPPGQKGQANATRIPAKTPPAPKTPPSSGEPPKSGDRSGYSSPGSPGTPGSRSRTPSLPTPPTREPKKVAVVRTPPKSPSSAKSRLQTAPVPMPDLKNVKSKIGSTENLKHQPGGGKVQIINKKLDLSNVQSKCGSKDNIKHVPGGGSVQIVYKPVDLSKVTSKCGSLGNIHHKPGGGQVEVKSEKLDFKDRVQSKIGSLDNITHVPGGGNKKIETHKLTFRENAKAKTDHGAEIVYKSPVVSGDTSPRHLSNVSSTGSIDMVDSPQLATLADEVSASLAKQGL
# Protocol: Surface plasmon resonance (SPR) is widely regarded as the gold standard for real time measurement of protein-protein interactions such as antibody binding. All SPR experiments were carried out using a Biacore X100 machine and HBS EP+ running buffer (GE Healthcare). A ‘capture’ method was followed for affinity measurements, where an anti-human constant kappa chain (HuCk) antibody was conjugated to the surface of a CM5 sensor chip using an amine coupling kit and scAb molecules were immobilised via their HuCk domain. Amine coupling is a very common approach for immobilising the ligand to the chip surface. […] The capture antibody was diluted 1/100 in 10 mM Sodium acetate buffer pH 5.0 and passed over the activated chip surface for a period of at least 420 s. Final ligand immobilisation levels over 12,000 RU were deemed to be satisfactory.
# (§1) Following immobilisation, the level of each scAb to be captured was identified using the standard SPR equation with a theoretical RMax of 100 RU. Analyte MW refers to the molecular weight of hT40 or dGA/dGAE molecules, while ligand MW refers to the molecular weight of the scAbs tested. RL is the desired capture level and S refers to the stoichiometric ratio:
# The scAb to be tested was added only to flow cell 2 so that flow cell 1 could act as a control to subtract any interaction with the analyte and the chip surface. Both single and multi-cycle runs were utilised using wizards developed in the Biacore X100 control software which are both accepted methods of kinetic analysis (Karlsson, R., et al. Analyzing a kinetic titration series using affinity biosensors (2006) Analytical Biochemistry 349:136-47). The multi-cycle protocol was as follows-Three start-up cycles composed of an initial capture, to the desired level, of the scAb to be tested was performed followed by a 30 s injection of glycine buffer pH 2.0 after each cycle to regenerate the chip surface. […] Following three start-up cycles increasing concentrations (0.15625 nM-100 nM) of the target to be tested were added to the chip surface after the desired scAb capture. The target was added for a 120 s association period and 420 s dissociation period followed by another regeneration, 30 s injection of glycine buffer pH 2.0 in between each cycle.
# (§2) The single cycle kinetics protocol was similar and utilised the same level of scAb capture. Three start-up cycles were used followed by 5 increasing concentrations of the analyte (6.25 nM-100 nM) for an association period of 120 s followed by a dissociation period of 420 s for each concentration. In single cycle kinetics the regeneration step was performed only after the final analyte concentration was added. Binding responses were analysed in Biacore X100 evaluation software and data fitted to a 1:1 binding model to obtain kinetic and affinity characterisation.
# htau40 = htau40 (Homo sapiens, UniProt P10636); experiment: Biacore X100 SPR of anti-tau mAbs on immobilised htau40; format: binding
# Chain of htau40 (P10636 1-441 isoform P10636-8): as above
# Protocol: For anti-tau mAb SPR measurements, htau40 was conjugated to the surface of a CM5 sensor chip using amine coupling as explained previously. Briefly, 2 μg/mL htau40 in 10 mM Sodium acetate buffer (pH 4.0) was passed over the activated chip surface (EDC/NHS) in flow cell 2 for a period for 45 s followed by blocking with 1 M ethanolamine-HCl PH 8.5. Flow cell 1 was set up as reference control and blocked simultaneously. Final immobilisation level of htau40 (Rmax) was approximately 250 RU. Following a minimum of three start-up cycles, increasing concentrations (0.78 nM-25 nM) of the mAb in HBS-EP+ buffer was added at a rate of 30 μL/min to the chip. The mAb was added for a 120 s association period and 600 s dissociation period followed by a regeneration cycle of 30 s injection of glycine buffer pH 1.5 in between each cycle. Binding responses were analysed in Biacore X100 evaluation software and data fitted to a 1:1 binding model to obtain kinetic and affinity characterisation.
# For anti-tau mAb SPR measurements (Biacore X100™) and epitope mapping, the same methodologies described above (see Example 16) were followed. Kinetic rates and equilibrium binding constants of additional anti-tau mAbs and the regions recognised on hT40 are given in the Table 25 below
# [1] = tested on: hT40, dGA, dGAE and truncated tau fragments/peptides; experiment: Binding ELISA for epitope mapping with truncated tau proteins and biotinylated 13mer peptides; parameters: species or system human; settings: direct binding ELISA
# Protocol: A series of binding ELISA was performed using various truncated versions of the tau protein and 13mer peptide libraries spanning the entire hT40 molecule for mapping the epitopes of anti-tau scAbs (Full list of protein antigens used is given in Table 14). In general, ELISA plates were coated with 1 μg/ml hT40 or dGA or dGAE or other truncated versions of the protein and in the case of biotinylated peptides, plates were coated with 5 μg/ml Streptavidin followed by 1 μg/ml biotinylated peptide. The plates were blocked with 2% MPBS and scAb samples added at desired starting concentrations and double diluted across the plate. Binding was detected using anti-Human C Kappa HRP conjugated secondary antibody and the resulting immunoreaction was developed and absorbance values measured as described above.
# Similarly, dGA binding ‘NS’, ‘S’ and ‘M’ group scAbs were subjected to further antigen binding ELISA using shorter tau proteins and biotinylated 13mer peptides as shown below (FIGS. 10A-F) and (FIGS. 11A-R).
# For anti-tau mAb SPR measurements (Biacore X100™) and epitope mapping, the same methodologies described above (see Example 16) were followed.
# dGA = dGA (Homo sapiens, UniProt P10636); experiment: Biacore X100 SPR, scAb captured via anti-HuCk, dGA as analyte; format: binding; settings: dissociation rate
# Chain of dGA (P10636 614-707): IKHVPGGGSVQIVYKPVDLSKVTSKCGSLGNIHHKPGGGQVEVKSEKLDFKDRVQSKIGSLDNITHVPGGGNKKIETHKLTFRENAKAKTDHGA
# Protocol: Surface plasmon resonance (SPR) is widely regarded as the gold standard for real time measurement of protein-protein interactions such as antibody binding. All SPR experiments were carried out using a Biacore X100 machine and HBS EP+ running buffer (GE Healthcare). A ‘capture’ method was followed for affinity measurements, where an anti-human constant kappa chain (HuCk) antibody was conjugated to the surface of a CM5 sensor chip using an amine coupling kit and scAb molecules were immobilised via their HuCk domain. Amine coupling is a very common approach for immobilising the ligand to the chip surface. The chip surface has a dextran matrix derivatised with carboxyl groups, which after activation with N-hydroxysuccinimide (NHS) and 1-ethyl-3-(3-dimethylaminopropyl) carbodiimide (EDC), form reactive succinimide esters which allows the covalent capturing of the ligand via any available primary amine groups (e.g. Lysine) on the ligand (in this case anti-HuCk antibody). The capture antibody was diluted 1/100 in 10 mM Sodium acetate buffer pH 5.0 and passed over the activated chip surface for a period of at least 420 s. Final ligand immobilisation levels over 12,000 RU were deemed to be satisfactory.
# as §1
# The scAb to be tested was added only to flow cell 2 so that flow cell 1 could act as a control to subtract any interaction with the analyte and the chip surface. Both single and multi-cycle runs were utilised using wizards developed in the Biacore X100 control software which are both accepted methods of kinetic analysis (Karlsson, R., et al. Analyzing a kinetic titration series using affinity biosensors (2006) Analytical Biochemistry 349:136-47). The multi-cycle protocol was as follows-Three start-up cycles composed of an initial capture, to the desired level, of the scAb to be tested was performed followed by a 30 s injection of glycine buffer pH 2.0 after each cycle to regenerate the chip surface. The regeneration step removed any captured scAb whilst leaving the capture antibody intact and able to repeat the capture for the next cycle. Following three start-up cycles increasing concentrations (0.15625 nM-100 nM) of the target to be tested were added to the chip surface after the desired scAb capture. The target was added for a 120 s association period and 420 s dissociation period followed by another regeneration, 30 s injection of glycine buffer pH 2.0 in between each cycle.
# as §2
# [2] = tested on: alanine substituted 13mer tau peptides; experiment: Alanine scanning mutagenesis (ASM) peptide ELISA; format: binding, human; settings: numbering according to SEQ ID NO: 1; description text 'may be'
# Protocol: To further elucidate epitopes of the scAb panel, and identify the critical amino acids needed for binding, alanine scanning mutagenesis of the parent 13 aa peptides for scAbs CE2, S1D12, CA4 and S1G2 was performed. […] Briefly, 5 μg/ml streptavidin (Thermo Fisher) was adsorbed to Nunc 96-well MaxiSorp plates and following incubation at 37° C., for 1 h, the plates were washed as normal and blocked with 2% MPBS. N-terminally biotinylated peptides (Prolmmune Ltd) were added to the plates and incubated for 1 h at 37° C. Subsequently, test scAbs at starting concentrations of 100-500 nM was added and double diluted across the plate for each peptide and incubated for 1 h at 37° C. Rest of the ELISA was conducted as described above and the plates were read at absorbance 450 nm. Immunoreactivity of the scAb of interest was quantified as the % of scAb was bound for each peptide at a chosen concentration (FIG. 15-20).
# [3] = mAb, Table 27, immobilised hT40
# [4] = newly converted mAbs, Table 25 (Example 28), hT40
Molecule,"bands detected in western blot of WT, L66+/+ and L1+/+ brain homogenates (human tau and mouse tau)",ka (hT40),kd (hT40),ka (htau40; [3]),kd (htau40; [3]),"cross-reactivity of 'E' group scAbs using hT40, dGA and dGAE antigens [1]",Kd (dGA),Critical residues of the epitope [2],ka (htau40; [4]),kd (htau40; [4]),"Kd (htau40; mAb, Table 27, read-out: kD (M) for hT40 binding)"
B1,show specificity for human tau,295700 M⁻¹ s⁻¹,0.0003659 s⁻¹,4.576e+06 M⁻¹ s⁻¹,0.03164 s⁻¹,,,,,,
B2,,213700 M⁻¹ s⁻¹,0.001077 s⁻¹,457900 M⁻¹ s⁻¹,0.005218 s⁻¹,cross-reacts with dGA; also recorded: specific binding to the tau peptide representing amino acids from 313-336,0.00242 s⁻¹,"323 (G), 324 (S), 325 (L), 326 (G), 327 (N) and/or 328 (I)",323800 M⁻¹ s⁻¹,0.001367 s⁻¹,
B3,,252100 M⁻¹ s⁻¹,0.0007393 s⁻¹,893700 M⁻¹ s⁻¹,0.002621 s⁻¹,,0.00102 s⁻¹,,,,1e-08 M
B4,,,,,,specific dGAE binding,,,,,
